Columns and labels:
Details in all cases: tags: R&D Systems; chain copies: 2
[1] = molecular target: T1, NGF (nerve growth factor) (Homo sapiens, UniProt P01138 P01138:122-241); assay: cell_activity; neurite; TF-1 <0.1
[2] = molecular target: T2, NT-4 (neurotrophin-4) (Homo sapiens, UniProt P34130 P34130:81-210); assay: cell_activity; TF-1
T2 sequence: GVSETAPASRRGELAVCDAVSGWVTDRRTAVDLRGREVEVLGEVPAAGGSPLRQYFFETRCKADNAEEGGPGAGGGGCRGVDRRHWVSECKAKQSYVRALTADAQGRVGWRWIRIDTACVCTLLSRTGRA
Excerpt: Using TF-1 cells, whether NGF aptamer inhibits BDNF, NT-3, NT-4 was examined. Human receptor genes (TrkB, TrkC, p75) for respective neurotrophic factors were introduced into TF-1 cells (ATCC Number: CRL-2003), which is a human erythroleukemic cell line, by using a retrovirus vector to give cells that highly express these receptors stably. TF-1 cells introduced with TrkB and p75 were used for the evaluation of inhibitory activity against BDNF, TF-1 cells introduced with TrkC and p75 were used for the evaluation against NT-3, and TF-1 cells introduced with TrkB alone were used for the evaluation against NT-4. These cells were suspended in an RPMI-1640 medium containing 20% fetal bovine serum, and seeded in a white 96 well flat-bottom plate at 1000 cells (50 μL) per well. Thereto was added a mixed solution 50 μL of human BDNF (final concentration 0.074 nM) or NT-3 (final concentration 0.074 nM) or NT-4 (final concentration 0.071 nM) and the aptamer (final concentration 1 μM-0.01 nM), which had been pre-reacted at room temperature for 30 min in a serum-free RPMI-1640 medium, 3 days later, 100 μL of CellTiter-Glo reagent for CellTiter-Glo Luminescent Cell Viability Assay (manufactured by Promega) was added to each well, chemiluminescence was measured by a microplate reader. With the amount of luminescence per well obtained by the addition of BDNF or NT-3 or NT-4 alone and culture of the cells for 3 days as inhibitory activity 0%, and that of the well obtained by culture for 3 days without addition of BDNF or NT-3 or NT-4 as inhibitory activity 100%, the inhibitory activity of the aptamer was calculated from the amount of luminescence per well obtained by culturing with the addition of BDNF or NT-3 or NT-4 and the aptamer in mixture. When the inhibitory activity was 0 or below, ‘0%’ is indicated. The 50% inhibitory concentration (IC₅₀) was determined from the concentrations at two, above and below points sandwiching the 50% inhibitory activity. An IC₅₀ value indicated as “>X” means that the inhibitory activity was not more than 50% when the indicated concentration X was the maximum measured concentration. N.D. means not measured.

[3] = molecular target: T1, NGF (nerve growth factor); assay: cell_activity; neurite; TF-1 >0.1
[4] = molecular target: T2, NT-4 (neurotrophin-4); assay: SPR; scarcely bound
Procedure: (§1) The binding activity of these shortened forms to NGF and NT-3 was measured by the surface plasmon resonance method. For the measurement method, BIAcore2000 manufactured by BIAcore was used and CM5 reactive with amino group was used as a sensorchip, as shown in Example 1. The protein was immobilized in the same manner as in Example 1 by using ethyl-3-carbodiimide hydrochloride and N-hydroxysuccinimide. […] After protein immobilization, blocking with ethanolamine-HCl was performed. The amount of immobilized NGF and NT-3 was 3,000-4,000 RU and 3,000-5,000 RU, respectively. The aptamer for an analyte was prepared to 0.15 μM-0.5 μM. The running buffer and regeneration solution were the same as those in Example 1. NT-3 was immobilized on FC2, and NGF on FC3, and the final sensorgram was obtained by subtracting the results of FC1.
(§2) Then, the aptamers were subjected to shortening to 40 mer in the same manner as with consensus secondary structure 1. […] NT-4 was measured in the same manner as in NT-3.
(§3) The shortened sequences were measured for the binding to NGF, NT-3, NT-4 by the surface plasmon resonance method. The measurement was performed in the same manner as in Example 13.

[5] = molecular target: T3, NT-3 (neurotrophin-3) (Homo sapiens, UniProt P20783 P20783:139-257); assay: SPR; scarcely bound
T3 sequence: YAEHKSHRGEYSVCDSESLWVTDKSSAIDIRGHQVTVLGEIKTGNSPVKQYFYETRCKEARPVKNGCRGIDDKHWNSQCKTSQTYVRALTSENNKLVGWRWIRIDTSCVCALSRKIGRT
Procedure: as §1, §2, §3

[6] = molecular target: T1, NGF (nerve growth factor); assay: cell_activity; neurite; TF-1 >1

T1 sequence (P01138 122-241, one chain of several): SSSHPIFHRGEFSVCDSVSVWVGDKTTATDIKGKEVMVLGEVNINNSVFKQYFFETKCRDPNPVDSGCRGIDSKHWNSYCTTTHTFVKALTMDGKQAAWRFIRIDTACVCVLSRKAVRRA

In the case of GGGUCCUGCUCAAGAGUUUCCGUCUCGUGGGCUGUUACCC (ssRNA, 2'-OMe G1-3,C38-40; other C/U 2'-F, G 2'-OH, dA; 5',3' idT) [SEQ ID NO: 87(1)], the IC50 [1] is reported as 0.173 nM and the IC50 [2] is reported as < 100 nM.

B1: SEQ ID NO: 87(2) (ssRNA)
RNA: GGGUCCUGCUCAAGAGUUUCCGUCUCGUGGGCUGUUACCC
modifications: 2'-OMe G1-3,U4,C6,G14,G16,C21,G22,U23,C26,G27,U28,C32,U35,C38-40; other C/U 2'-F, G 2'-OH, dA; 5',3' idT
For B1, the IC50 [1] was 0.107 nM.

GGGUCCUGCUCAAGAGUUUCCGUCUCGUGGGCUGUUACCC (ssRNA, as 87(2) plus 2'-OMe G29-31) [SEQ ID NO: 87(3)] gave an IC50 [1] of 0.118 nM.

Binder GGGUCCUGCUCAAGAGUUUCCGUCUCGUGGGCUGUUACCC (ssRNA, as 87(2) plus 2'-OMe C9,U10,C11,G29-31) [SEQ ID NO: 87(4)] has an IC50 [1] of 0.113 nM.

With GGGUCCUGUUCAAGAGUUUCCGUCUCGUGAACUGUUACCC (ssRNA, 2'-OMe C38-40; other C/U 2'-F, G 2'-OH, dA; 5',3' idT) [SEQ ID NO: 88(1)] the IC50 [1] was 0.241 nM and the IC50 [2] was < 100 nM.

With GGGUCCUGUUCAAGAGUUUCCGUCUCGUGAACUGUUACCC (ssRNA, 2'-OMe G1-3,C38-40; other C/U 2'-F, G 2'-OH, dA; 5',3' idT) [SEQ ID NO: 88(2)] the IC50 [1] was 0.241 nM.

B2: SEQ ID NO: 88(3) (ssRNA)
RNA: GGGUCCUGUUCAAGAGUUUCCGUCUCGUGAACUGUUACCC
modifications: 2'-OMe G1-3,U4,C6,G14,G16,C21,G22,U23,C26,G27,U28,C32,U35,C38-40; other C/U 2'-F, G 2'-OH, dA; 5',3' idT
With B2 the IC50 [1] was 0.106 nM.

GGGUCCUGUUCAAGAGUUUCCGUCUCGUGAACUGUUACCC (ssRNA, as 88(3) plus 2'-OMe U9,U10,C11,G29) [SEQ ID NO: 88(4)] gave an IC50 [1] of 0.111 nM and an IC50 [2] of 300 nM.

GGGUCCUGUGGAAGAGUUUCCGUCUCGUCCACUGUUACCC (ssRNA, 2'-OMe G1-3,C38-40; other C/U 2'-F, G 2'-OH, dA; 5',3' idT) [SEQ ID NO: 89(1)] gave an IC50 [1] of 0.246 nM.

B3: SEQ ID NO: 89(2) (ssRNA)
RNA: GGGUCCUGUGGAAGAGUUUCCGUCUCGUCCACUGUUACCC
modifications: 2'-OMe G1-3,C6,G14,G16,C21,G22,U23,C26,G27,U28,C32,U35,C38-40; other C/U 2'-F, G 2'-OH, dA; 5',3' idT
B3 showed an IC50 [1] of 0.103 nM.

In the case of GGGUCCUGUGGAAGAGUUUCCGUCUCGUCCACUGUUACCC (ssRNA, as 89(2) plus 2'-OMe G10,G11) [SEQ ID NO: 89(3)], the IC50 [1] is reported as 0.122 nM.

GGGUCCUGUGGAAGAGUUUCCGUCUCGUCCACUGUUACCC (ssRNA, as 89(2) plus 2'-OMe U9,G10,G11,C29,C30) [SEQ ID NO: 89(4)] was tested, and the IC50 [1] was < 0.1 nM and the IC50 [2] was 271 nM.

Binder GGGUCCUGGAUAAGAGUUUCCGUCUCGUAUCCUGUUACCC (ssRNA, as 82(1) except 2'-OMe U33) [SEQ ID NO: 82(14)] has an IC50 [3] of 0.294 nM.

GGGUCCUGGAUAAGAGUUUCCGUCUCGUAUCCUGUUACCC (ssRNA, as 82(1) except 2'-OMe U4,C6,U11,C20,C21,C26,U28,U30,C31,C32,U35,C38-40) [SEQ ID NO: 82(19)] showed an IC50 [3] of 0.291 nM.

With GGGUCCUGGAUAAGAGUTUCCGUCUCGUAUCCUGUUACCC (ssRNA, as 82(1) except dT18) [SEQ ID NO: 157] the IC50 [3] was 0.299 nM.

For GGGUCCUGGAUAAGAGUUUCCGUCUCGUAUCCUGUUACCC (ssRNA, as 82(1) except dC20) [SEQ ID NO: 82(30)], the IC50 [3] was 0.244 nM.

GGGUCCUGGAUAAGAGUUUCCGUCUCGUAUCCUGUUACCC (ssRNA, as 82(1) except dC24) [SEQ ID NO: 82(31)] showed an IC50 [3] of 0.276 nM.

Work on GGGUCCUGGAUAAGAGUUUCCGUCUCGUAUCCUGUTACCC (ssRNA, as 82(1) except dT36) [SEQ ID NO: 159] yielded an IC50 [3] of 0.264 nM.

GGGUCCUGGAUAAGAGUUUCCGUCUCGUAUCCUGUUACCC (ssRNA, as 82(25) except dU18) [SEQ ID NO: 82(38)] showed an IC50 [3] of 0.295 nM.

Work on GGGUCCUGGAUAAGAGUUUCCGUCUCGUAUCCUGUUACCC (ssRNA, as 82(25) except dU19) [SEQ ID NO: 82(39)] yielded an IC50 [3] of 0.256 nM.

For GGGUCCUGGAUAAGAGUUUCCGUCUCGUAUCCUGUUACCC (ssRNA, as 82(25) except 2'-OMe A13) [SEQ ID NO: 82(43)], the IC50 [3] was 0.088 nM.

GGGUCCUGGAUAAGAGUUUCCGUCUCGUAUCCUGUUACCC (ssRNA, as 82(25) except 2'-OMe A12) [SEQ ID NO: 82(44)] was tested, and the IC50 [3] was 0.097 nM.

GGGUCCUGGAUAAGAGTUUCCGUCUCGUAUCCTGUUACCC (ssRNA, as 82(48) except dU7,dT17,dT33,dU36) [SEQ ID NO: 168] gave an IC50 [3] of 0.261 nM.

With GGGUCCUGCUGCGUAGUUUCCGUCUGCGUGGUUGUUACCC (ssRNA, 2'-F C/U, dA, 2'-OH G) [SEQ ID NO: 103] the binding result [4] was “no binding”, the binding result [5] was “no binding” and the IC50 [6] was 0.766 nM.

With GGGUCCUGAUGUCAAGUUUCCGUCUUGAUGUCUGUUACCC (ssRNA, 2'-F C/U, dA, 2'-OH G) [SEQ ID NO: 104] the binding result [4] was “no binding”, the binding result [5] was “no binding” and the IC50 [6] was 0.682 nM.

For GGGUCCUGUUGCUAAGUUUCCGUCUUAGUGACUGUUACCC (ssRNA, 2'-F C/U, dA, 2'-OH G) [SEQ ID NO: 105], the binding result [4] was “no binding”, the binding result [5] was “no binding” and the IC50 [6] was 0.444 nM.

For GGGUCCUGCUGCGUAGUUUCCGUCUGCGUAGCUGUUACCC (ssRNA, 2'-F C/U, dA, 2'-OH G) [SEQ ID NO: 106], the binding result [4] was “no binding”, the binding result [5] was “no binding” and the IC50 [6] was 0.77 nM.

In the case of GGGUCCUGCUGCGAAGUUUCCGUCUUCGUGGCUGUUACCC (ssRNA, 2'-F C/U, dA, 2'-OH G) [SEQ ID NO: 107], the binding result [4] is reported as “no binding”, the binding result [5] is reported as “no binding” and the IC50 [6] is reported as 0.967 nM.

With GGGUCCUGUUGCGUAGUUUCCGUCUGCGUGACUGUUACCC (ssRNA, 2'-F C/U, dA, 2'-OH G) [SEQ ID NO: 108] the binding result [4] was “no binding”, the binding result [5] was “no binding” and the IC50 [6] was 0.403 nM.

With GGGUCCUGCUGCGUAGUUUCCUUCUGCGUGGCUGUUACCC (ssRNA, 2'-F C/U, dA, 2'-OH G) [SEQ ID NO: 109] the binding result [4] was “no binding”, the binding result [5] was “no binding” and the IC50 [6] was 0.687 nM.

With GGGUCCUGCCGCGUAGUUUCCGUCUGCGUGGCUGUUACCC (ssRNA, 2'-F C/U, dA, 2'-OH G) [SEQ ID NO: 110] the binding result [4] was “no binding”, the binding result [5] was “no binding” and the IC50 [6] was 0.999 nM.

For GGGUCCUGCUGUGUAGUUUCCGUCUGCAUGGUUGUUACCC (ssRNA, 2'-F C/U, dA, 2'-OH G) [SEQ ID NO: 113], the binding result [4] was “no binding”, the binding result [5] was “no binding” and the IC50 [6] was 0.96 nM.

From US20140235701, “NGF APTAMER AND APPLICATION THEREOF” (RIBOMIC INC., published 2014)
